Patent US20070253958A1 (Bristol-Myers Squibb, published 2007)

T1: FcγRIIa-R131 (CD32, arginine at position 131), on cells (human, UniProt P12318 34-317)
T1 construct: whole, on cells; A database entry may carry H at that site, so the arginine must be set by hand; also called FcγRIIa-R131 allotype; IIA1.6 FcγRIIa-R131 transfectants
T1 sequence (looked up): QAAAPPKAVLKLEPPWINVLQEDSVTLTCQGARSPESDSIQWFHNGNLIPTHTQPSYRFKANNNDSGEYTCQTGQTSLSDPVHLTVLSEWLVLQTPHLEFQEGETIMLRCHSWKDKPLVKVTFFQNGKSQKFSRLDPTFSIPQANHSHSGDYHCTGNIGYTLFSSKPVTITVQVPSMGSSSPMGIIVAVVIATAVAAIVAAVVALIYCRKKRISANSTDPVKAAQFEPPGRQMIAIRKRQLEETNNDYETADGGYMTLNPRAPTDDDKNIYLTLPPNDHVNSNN

T2: CD20 (human, UniProt P11836)
T2 construct: full length, on cells; also called CD20 on cells; Raji cells expressing CD20
T2 sequence (membrane protein on cells, looked up): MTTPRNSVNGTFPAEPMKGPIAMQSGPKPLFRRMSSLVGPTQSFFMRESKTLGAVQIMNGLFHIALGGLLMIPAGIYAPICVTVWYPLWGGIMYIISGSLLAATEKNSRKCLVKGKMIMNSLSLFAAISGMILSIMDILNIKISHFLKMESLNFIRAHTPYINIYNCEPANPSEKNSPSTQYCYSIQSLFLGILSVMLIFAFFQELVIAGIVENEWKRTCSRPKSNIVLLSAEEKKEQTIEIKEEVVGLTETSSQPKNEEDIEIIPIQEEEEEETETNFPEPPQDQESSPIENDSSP

B1: human monoclonal antibody MDE-8 (whole IgG) (antibody, V domains shown)
VH: QVHLVESGGGVVQPGRSLRLSCAASGFTFSSYGMHWVRQAPGKGLEWVAVIWYDGSNYYYTDSVKGRFTISRDNSKNTLYLQMNSLRAEDTAVYYCARDLGAAASDYWGQGTLVTVSS
VL: AIQLTQSPSSLSASVGDRVTITCRASQGINSALAWYQQKPGKAPKLLIYDASSLESGVPSRFSGSGSGTDFTLTISSLQPEDFATYYCQQFNSYPHTFGQGTKLEIK
notes: Hybridoma-derived fully human IgG, kappa from HuMab HCo7 mice; a human IgG1 mAb served as its isotype control; also called HuMAb MDE-8; MDE-8 IgG

Key:
FcγRI (CD64), on cells [1] = molecular target: T3, FcγRI (CD64), on cells (UniProt P12314 16-374, limits assumed); assay: cell-based or functional assay
T3 construct: whole, on cells
T3 sequence (P12314 16-374 limits assumed): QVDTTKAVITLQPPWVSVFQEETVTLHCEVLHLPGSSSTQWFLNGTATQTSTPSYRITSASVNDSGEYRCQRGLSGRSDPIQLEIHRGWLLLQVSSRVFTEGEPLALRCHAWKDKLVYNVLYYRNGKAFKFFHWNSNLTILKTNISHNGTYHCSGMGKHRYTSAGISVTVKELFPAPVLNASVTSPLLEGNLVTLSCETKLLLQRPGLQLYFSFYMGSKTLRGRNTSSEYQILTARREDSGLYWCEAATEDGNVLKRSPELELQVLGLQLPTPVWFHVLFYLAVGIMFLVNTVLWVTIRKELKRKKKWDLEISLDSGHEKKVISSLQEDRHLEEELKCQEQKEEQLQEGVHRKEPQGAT

[2] = molecular target: T4, FcγRIIIa (CD16), on cells (UniProt P08637 17-254, limits assumed); assay: flow cytometry on CD16A-expressing cells, mean fluorescence intensity; concentration not given
T4 construct: whole, on cells; also called CD16A
T4 sequence (P08637 17-254 limits assumed): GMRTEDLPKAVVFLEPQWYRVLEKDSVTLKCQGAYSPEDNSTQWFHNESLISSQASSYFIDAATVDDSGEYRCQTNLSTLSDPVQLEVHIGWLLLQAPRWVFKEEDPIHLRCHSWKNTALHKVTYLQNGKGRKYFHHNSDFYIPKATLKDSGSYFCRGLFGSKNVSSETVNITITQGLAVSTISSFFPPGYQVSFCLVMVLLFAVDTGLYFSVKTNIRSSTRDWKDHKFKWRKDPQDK

[3] = molecular target: T5, FcαR (CD89), on transfected IIA1.6 cells (UniProt P24071 22-287, limits assumed); assay: flow cytometry on CD89-transfected cells, mean fluorescence intensity; concentration not given
T5 construct: whole, on cells; also called Fcα receptor; FcαRI
T5 sequence (P24071 22-287 limits assumed): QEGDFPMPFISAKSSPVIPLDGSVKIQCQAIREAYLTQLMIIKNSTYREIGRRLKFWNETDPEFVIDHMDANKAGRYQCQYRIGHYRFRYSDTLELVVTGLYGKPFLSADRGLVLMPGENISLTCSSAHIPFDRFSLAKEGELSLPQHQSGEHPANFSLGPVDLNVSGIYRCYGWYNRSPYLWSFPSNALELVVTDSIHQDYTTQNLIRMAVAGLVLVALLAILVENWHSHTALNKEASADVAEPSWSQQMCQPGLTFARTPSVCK

[4] = molecular target: T1, FcγRIIa-R131 (CD32, arginine at …); assay: flow cytometry on transfected cells, mean fluorescence intensity; antibody concentration not given
FcγRI (CD64), on cells [5] = molecular target: T3, FcγRI (CD64), on cells; assay: flow cytometry on CD64-expressing cells, mean fluorescence intensity; concentration not given
CD20 = molecular target: T2, CD20; assay: flow cytometry on CD20-expressing cells, mean fluorescence intensity; concentration not given

Molecule	reduction of FcγRI membrane expression (FcγRI (CD64), on cells [1]) [%]	binding result [2]	binding result [3]	binding result [4]	binding result (FcγRI (CD64), on cells [5])	binding result (CD20)
humanized CD64 mAb H22 (antibody)	60	–	–	–	–	–
B1	–	no binding	no binding	binds	no binding	no binding
